Measurements: US20230136228A1 (LAMKAP BIO ALPHA, published 2023)

What was measured:
[1] = biological target: T1, human CEACAM5 (carcinoembryonic antigen, CEA), cell surface (human, UniProt P06731 35-685); test: cell-based or functional assay
T1 sequence (looked up): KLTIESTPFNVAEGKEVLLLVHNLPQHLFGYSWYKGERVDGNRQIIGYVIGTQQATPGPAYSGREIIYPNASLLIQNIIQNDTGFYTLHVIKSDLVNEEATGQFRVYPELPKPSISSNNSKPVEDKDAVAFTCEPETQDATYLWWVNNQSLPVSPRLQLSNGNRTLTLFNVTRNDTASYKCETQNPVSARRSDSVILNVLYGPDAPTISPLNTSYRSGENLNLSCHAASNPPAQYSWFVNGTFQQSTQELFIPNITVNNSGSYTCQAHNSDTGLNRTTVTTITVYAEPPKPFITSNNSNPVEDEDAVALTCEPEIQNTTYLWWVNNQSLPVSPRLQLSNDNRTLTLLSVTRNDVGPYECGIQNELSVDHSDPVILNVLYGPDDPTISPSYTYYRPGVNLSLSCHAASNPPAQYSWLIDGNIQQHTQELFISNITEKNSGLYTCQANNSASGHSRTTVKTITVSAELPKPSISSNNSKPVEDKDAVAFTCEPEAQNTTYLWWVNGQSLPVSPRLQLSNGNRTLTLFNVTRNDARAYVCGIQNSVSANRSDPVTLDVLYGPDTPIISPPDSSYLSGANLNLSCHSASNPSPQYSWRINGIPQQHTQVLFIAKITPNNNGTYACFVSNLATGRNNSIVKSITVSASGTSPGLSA

human CD3ε = biological target: T2, human CD3ε (human, UniProt P07766 23-207); test: flow cytometry, HUT-78 cells
T2 construct: whole, on cells; Present on cells as part of the CD3/TCR complex; also called CD3 epsilon

human CEACAM8 = biological target: T3, human CEACAM8 (human, UniProt P31997 35-320); test: flow cytometry, transfected PEAK cells
T3 construct: whole, on cells
T3 sequence (looked up): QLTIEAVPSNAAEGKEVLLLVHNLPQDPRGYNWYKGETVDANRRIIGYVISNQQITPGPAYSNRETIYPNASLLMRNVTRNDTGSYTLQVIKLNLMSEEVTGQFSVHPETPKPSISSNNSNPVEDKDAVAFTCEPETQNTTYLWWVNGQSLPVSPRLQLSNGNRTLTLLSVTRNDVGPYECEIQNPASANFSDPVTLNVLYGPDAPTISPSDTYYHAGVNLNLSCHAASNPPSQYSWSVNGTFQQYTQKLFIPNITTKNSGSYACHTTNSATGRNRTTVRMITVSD
Procedure, shortened: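 PEAK cells transiently expressing full-length CEACAM, with non-transfected PEAK as negative control, incubated 15 min at 4° C with antibody (30 pM-500 nM range), then anti-human IgG secondary. Live cells gated by TOPRO-3; MFI read by flow cytometry, dose-response curves fitted.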

[2] = biological target: T1, human CEACAM5 (carcinoembryonic …); test: flow cytometry, MKN-45 and/or HPAF-II cells

T2 sequence (P07766 23-207): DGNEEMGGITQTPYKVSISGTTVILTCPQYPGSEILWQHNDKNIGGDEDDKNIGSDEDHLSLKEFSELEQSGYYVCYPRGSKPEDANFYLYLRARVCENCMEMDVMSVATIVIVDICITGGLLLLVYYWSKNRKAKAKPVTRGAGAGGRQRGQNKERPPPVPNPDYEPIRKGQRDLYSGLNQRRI

B1: AB17L3-1/N (bispecific antibody, human IgG1, kappa, lambda, L234A L235A)
heavy: EVQLVESGGGLVQPGGSLKLSCAASGFTFNTYAMNWVRQAPGKGLEWVGRIRSKYNNYATYYADSVKDRFTISRDDSKNTAYLQMNSLKTEDTAVYYCVRHGNFGNSYVSWFAYWGQGTLVTVSSASTKGPSVFPLAPSSKSTSGGTAALGCLVKDYFPEPVTVSWNSGALTSGVHTFPAVLQSSGLYSLSSVVTVPSSSLGTQTYICNVNHKPSNTKVDKRVEPKSCDKTHTCPPCPAPEAAGGPSVFLFPPKPKDTLMISRTPEVTCVVVDVSHEDPEVKFNWYVDGVEVHNAKTKPREEQYNSTYRVVSVLTVLHQDWLNGKEYKCKVSNKALAAPIEKTISKAKGQPREPQVYTLPPSREEMTKNQVSLTCLVKGFYPSDIAVEWESNGQPENNYKTTPPVLDSDGSFFLYSKLTVDKSRWQQGNVFSCSVMHEALHNHYTQKSLSLSPG
light 1: EIVLTQSPATLSLSPGERATLSCRASQSVNSNLNWYQQKPGQAPRLLIYHGSNRATGIPARFSGSGSGTDFTLTISSLEPEDFAVYYCQQFDYFKEHNTFGQGTKVEIKRTVAAPSVFIFPPSDEQLKSGTASVVCLLNNFYPREAKVQWKVDNALQSGNSQESVTEQDSKDSTYSLSSTLTLSKADYEKHKVYACEVTHQGLSSPVTKSFNRGEC
light 2: QTVVTQEPSLTVSPGGTVTLTCRSSTGAVTTSNYANWFQQKPGQAPRGLIGGTNKRAPGTPARFSGSLLGGKAALTLSGAQPEDEAEYYCALWYKQRWVFGGGTKLTVLGQPKAAPSVTLFPPSSEELQANKATLVCLISDFYPGAVTVAWKADSSPVKAGVETTTPSKQSNNKYAASSYLSLTPEQWKSHRSYSCQVTHEGSTVEKTVAPTECS
notes: Kappa-lambda body, lead optimization wave 1
Killing EC50, HPAFII cells (TDCC, LDH release) [1]: 0.16 nM | Killing EC50, LS174T cells (TDCC, LDH release) [1]: 0.25 nM | Killing EC50, MKN45 cells (TDCC, LDH release) [1]: 0.11 nM | binding result (human CD3ε): binds | binding result (human CEACAM8): no binding (tested: 10 mcg/ml) | binding higher than TCB2014 (at 100 nM) [2]: ≥ 40%
